Measured values taken from publication PMC2576468, “The orthologue of the "acatalytic" mammalian ART4 in chicken is an arginine-specific mono-ADP-ribosyltransferase” (BMC Molecular Biology, 2008).

Substrate: NC(=O)c1ccc[n+]([C@@H]2O[C@H](COP(=O)([O-])OP(=O)(O)OC[C@H]3O[C@@H](n4cnc5c4ncn4ccnc54)[C@H](O)[C@@H]3O)[C@@H](O)[C@H]2O)c1
Test: purified protein
Assay type: biochemical, Gallus gallus
Details: poly-L-arginine 1 mg/ml as acceptor, PBS pH 7.4, room temperature, glycosylated protein (no PNGase F)

B1: recombinant chicken ART4 (chART4) (Gallus gallus) (protein)
chain: SHLMMDMALHSFDDQYLGCREQMMEELERGDYFQKEIAANKNYSSLWKKAQEALLKSSVGLLREMHDSHATALMAYTMNSSLHSQLNWATSTAGRSPEQYRHNFSFKYFHFYLTTAIQIMKQWQSSKDNVRKRHCYRVHRGVKDLYIKATVGSIVRFGRFTSTSCLWNEAQKFGNETLFTVTTCLGAAMQGFSYYTSEKEVLIPPYEIFLVKNFFRTRRGNRLHLHSVGNYSKYHYQLLEASRIKNGGSTA
notes: N-glycosylated
- Km: 1.0 ± 0.18 µM
